Results as given in PMC3657149, “Mig6 Is a Sensor of EGF Receptor Inactivation that Directly Activates c-Abl to Induce Apoptosis during Epithelial Homeostasis” (Developmental Cell, 2012).

Target: immunopurified Abl (UniProt P00519-2 1-1149)
Experiment: cell-based or functional assay

immunopurified Abl, sequence (P00519 other isoform, or with tags, fused parts or gaps): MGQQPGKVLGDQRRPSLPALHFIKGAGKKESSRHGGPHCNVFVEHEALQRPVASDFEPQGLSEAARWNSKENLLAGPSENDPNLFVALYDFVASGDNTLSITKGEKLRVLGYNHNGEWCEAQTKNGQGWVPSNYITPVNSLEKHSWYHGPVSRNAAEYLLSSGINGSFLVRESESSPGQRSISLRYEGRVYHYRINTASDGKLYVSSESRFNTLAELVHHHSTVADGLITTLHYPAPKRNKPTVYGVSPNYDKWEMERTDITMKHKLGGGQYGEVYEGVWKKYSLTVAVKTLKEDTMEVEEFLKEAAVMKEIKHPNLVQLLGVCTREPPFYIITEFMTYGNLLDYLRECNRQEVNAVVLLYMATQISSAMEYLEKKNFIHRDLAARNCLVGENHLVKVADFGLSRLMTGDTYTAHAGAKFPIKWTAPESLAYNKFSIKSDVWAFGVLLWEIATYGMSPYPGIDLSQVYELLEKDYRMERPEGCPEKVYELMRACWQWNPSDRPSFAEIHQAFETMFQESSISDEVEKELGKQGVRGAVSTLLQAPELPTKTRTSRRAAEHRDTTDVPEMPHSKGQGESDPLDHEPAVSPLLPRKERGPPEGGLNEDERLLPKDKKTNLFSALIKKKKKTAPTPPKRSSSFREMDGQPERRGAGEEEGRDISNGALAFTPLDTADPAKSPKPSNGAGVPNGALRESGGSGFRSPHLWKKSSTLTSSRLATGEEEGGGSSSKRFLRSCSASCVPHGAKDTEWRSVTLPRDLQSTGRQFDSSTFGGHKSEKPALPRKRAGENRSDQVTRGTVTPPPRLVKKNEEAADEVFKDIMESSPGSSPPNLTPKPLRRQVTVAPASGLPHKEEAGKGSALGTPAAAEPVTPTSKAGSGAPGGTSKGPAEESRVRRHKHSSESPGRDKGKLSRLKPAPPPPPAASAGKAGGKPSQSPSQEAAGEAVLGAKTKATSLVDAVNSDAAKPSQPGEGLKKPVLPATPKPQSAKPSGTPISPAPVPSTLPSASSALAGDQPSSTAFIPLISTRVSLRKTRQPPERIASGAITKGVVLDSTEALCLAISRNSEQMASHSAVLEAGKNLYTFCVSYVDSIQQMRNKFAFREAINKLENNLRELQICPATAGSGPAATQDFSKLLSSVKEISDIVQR

activation (phosphorylation) of immunopurified Abl in the presence of bacterially produced Mig6: 2.2 fold
B1: bacterially produced Mig6 (natural protein, UniProt Q9UJM3 1-462, looked up)
chain: MSIAGVAAQEIRVPLKTGFLHNGRAMGNMRKTYWSSRSEFKNNFLNIDPITMAYSLNSSAQERLIPLGHASKSAPMNGHCFAENGPSQKSSLPPLLIPPSENLGPHEEDQVVCGFKKLTVNGVCASTPPLTPIKNSPSLFPCAPLCERGSRPLPPLPISEALSLDDTDCEVEFLTSSDTDFLLEDSTLSDFKYDVPGRRSFRGCGQINYAYFDTPAVSAADLSYVSDQNGGVPDPNPPPPQTHRRLRRSHSGPAGSFNKPAIRISNCCIHRASPNSDEDKPEVPPRVPIPPRPVKPDYRRWSAEVTSSTYSDEDRPPKVPPREPLSPSNSRTPSPKSLPSYLNGVMPPTQSFAPDPKYVSSKALQRQNSEGSASKVPCILPIIENGKKVSSTHYYLLPERPPYLDKYEKFFREAEETNGGAQIQPLPADCGISSATEKPDSKTKMDLGGHVKRKHLSYVVSP
